Reference: US10507233B2, “Universal N-glycan binding reagent” (New England Biolabs, Inc., priority 2014, dated 2019)
Read-outs that look alike come from different tables or passages of the source.

What was measured:
[1] = biological target: T1, SNAP-Fbs (SNAP-wtFbs): human Fbs sugar binding domain, positions 113 to 296, wild type, SEQ ID NO: 2, fused to SNAP-tag (AGT variant, SEQ ID NO: 4), fusion SEQ ID NO: 3 (Homo sapiens, UniProt Q9UK22); assay: Isothermal titration calorimetry of glycan / sialylglycopeptide binding to SNAP-Fbs in solution; conditions: ITC, low salt buffer (50 mM NaCl, 20 mM Tris-HCl, 1 mM EDTA, pH 7.5), 90 μM glycan into 9 μM Fbs, single site binding model
T1 construct: made in house; host or cells: E. coli, pSNAP-tag(T7)-2 vector
T1 sequence (Q9UK22 with tags, fused parts or gaps): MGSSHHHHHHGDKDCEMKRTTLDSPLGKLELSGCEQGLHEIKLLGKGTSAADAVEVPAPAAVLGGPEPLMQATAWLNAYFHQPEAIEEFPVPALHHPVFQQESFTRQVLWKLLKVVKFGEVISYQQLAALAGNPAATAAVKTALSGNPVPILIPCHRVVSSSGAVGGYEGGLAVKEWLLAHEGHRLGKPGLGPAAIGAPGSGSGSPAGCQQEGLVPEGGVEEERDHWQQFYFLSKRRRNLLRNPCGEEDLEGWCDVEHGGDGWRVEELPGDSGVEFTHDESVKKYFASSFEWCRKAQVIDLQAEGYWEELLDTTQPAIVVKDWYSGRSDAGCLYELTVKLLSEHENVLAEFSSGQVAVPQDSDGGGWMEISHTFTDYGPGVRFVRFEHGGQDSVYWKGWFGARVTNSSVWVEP
Experimental: Fbs binds to N-glycan and N-glycan with fucose modification at the reducing end of GlcNAc. Isothermal titration calorimetry was used to assay the interaction between Fbs and core structure glycans. Man3GlcNAc2 (M3N2) and Man3GlcNAc2 with (alpha 1-6) fucose modification at the reducing end of GlcNAc (M3N2F) were used as binding substrates (both substrates were purchased from Prozyme, Hayward, Calif. SNAP-Fbs was dialysed against low salt buffer and the glycans were also dissolved in the same dialysis buffer. A Nano ITC instrument (TA Instruments, Lindon, Utah) with 170 μl cell volume and 50 μl buret volume was used. Every 300 seconds, 2.97 μl of 90 μM glycan was automatically injected into 9 μM Fbs solution. The data was fitted using a single site binding model (Nanoanalyze software (TA Instruments, Lindon, Utah)), and the Kd was calculated.
Isothermal titration calorimetry analysis of SGP (Fushimi Pharmaceutical Co., Marugame, Japan) binding to SNAP-Fbs. SNAP-Fbs was dialysed against low salt buffer and SGP was also dissolved in the same low salt buffer. A Nano ITC instrument with 170 μl cell volume and 50 μl buret volume was used. Every 300 seconds, 2.97 μl of 270 μM SGP was automatically injected into 27 μM Fbs solution. The data was fitted using a single site binding model (Nanoanalyze software), and Kd was calculated. […]

[2] = biological target: T2, RNase B tryptic digest spiked with SGP (Homo sapiens, UniProt Q9UK22); assay: Enrichment of N-glycopeptides from RNase B tryptic digest spiked with SGP (LC-MS); format: binding; conditions: low salt or high salt volatile buffer, TIC
T2 construct: His6 (N); made in house; host or cells: E. coli
T2 sequence (Q9UK22 with tags, fused parts or gaps): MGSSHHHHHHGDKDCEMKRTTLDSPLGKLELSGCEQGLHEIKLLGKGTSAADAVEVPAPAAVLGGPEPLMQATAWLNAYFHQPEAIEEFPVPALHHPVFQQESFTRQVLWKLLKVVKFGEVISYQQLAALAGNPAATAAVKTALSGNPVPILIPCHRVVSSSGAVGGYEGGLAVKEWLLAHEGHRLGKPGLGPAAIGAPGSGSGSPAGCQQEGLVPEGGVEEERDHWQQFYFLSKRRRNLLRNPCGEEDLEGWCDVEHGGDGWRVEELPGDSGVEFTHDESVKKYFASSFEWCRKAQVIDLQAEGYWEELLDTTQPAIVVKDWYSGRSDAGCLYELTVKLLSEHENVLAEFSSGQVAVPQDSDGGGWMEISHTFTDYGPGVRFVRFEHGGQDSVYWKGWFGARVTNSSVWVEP
Text: Fbs beads were used to capture and enrich N-glycopeptides from a complex mixture. The complex mixture was a tryptic digest of RNase B spiked with SGP to serve as a complex, sialylated glycopeptide. RNase B contains several non-glycosylated peptides and several different high mannose N-glycopeptides (labeled in the enlargement as: M5N2, M6N2). One hundred eighty-five micrograms RNase B was digested with 4 micrograms trypsin (New England Biolabs, Ipswich, Mass.) in trypsin digestion buffer and then filtered with a 10 kDa Microcon 10 centrifugal filter unit (Millipore, Billerica, Mass.) to remove trypsin and any undigested RNase B. PMSF (1 mM final concentration) was added to inhibit any residual trypsin. 100 micrograms SGP was added to the RNase B digest. Then immobilized binding reagent, SNAP-Fbs beads in this example, was mixed with the complex mixture and incubated at 4° C. for 1 hour in the presence of either low salt volatile buffer or high salt volatile buffer. The beads were washed with low salt volatile buffer or high salt volatile buffer, respectively. The bound N-glycopeptides were eluted using 50% acetonitrile, then lyophilized and analyzed by mass spec (LC-MS method). […] The dotted line indicates the chromatogram of the input mixture without enrichment. […]
The different peptides and N-glycopeptides present in the complex mixture described in Example 11 were quantified.

[3] = test system: Fetuin and RNase B; assay: Pull-down of Fetuin and RNase B mixture by immobilized Fbs beads; format: binding; conditions: input defined as 1
Experimental: The same amount of wild-type Fbs, Fbs GYR mutant and PPRYR mutant proteins were conjugated to SNAP capture resin using the conditions described in Example 2 (FIG. 10B). Binding to RNase B with high mannose N-glycan and Fetuin with sialyated complex N-glycan linked glycomolecules was analyzed in a single experiment. A mixture of denatured Fetuin and RNase B (denatured by boiling for 10 minutes in the presence of 1× Rapid PNGase F buffer (New England Biolabs, Ipswich, Mass.) were pulled down by the immobilized Fbs beads conjugated with equal amount of WT, GYR or PPRYR Fbs proteins (FIGS. 10A and 10B). The bound fetuin and RNase B were eluted by 1× gel loading buffer, and analyzed by -PAGE/Coomassie blue staining. The amount of fetuin or RNase B on -PAGE gels were quantified using Image J. The ratio of Fetuin to RNase B (Fetuin/RNase B) is arbitrarily defined as 1 in the input (FIG. 10A, Lane 7 and 10C). In low salt volatile buffer conditions, wild-type Fbs pulled down a very small amount of Fetuin (FIG. 10A, Lane1), and the Fetuin/RNase B is only 0.29 (FIG. 10C), which indicates biased N-glycan linked glycomolecule binding. […]

[4] = biological target: T3, SGP-TMR (Homo sapiens, UniProt Q9UK22); assay: Elution of bound SGP-TMR from Fbs beads; conditions: 100 ul 2 M ammonium bicarbonate
T3 construct: His6 (N); made in house; host or cells: E. coli
T3 sequence (Q9UK22 with tags, fused parts or gaps): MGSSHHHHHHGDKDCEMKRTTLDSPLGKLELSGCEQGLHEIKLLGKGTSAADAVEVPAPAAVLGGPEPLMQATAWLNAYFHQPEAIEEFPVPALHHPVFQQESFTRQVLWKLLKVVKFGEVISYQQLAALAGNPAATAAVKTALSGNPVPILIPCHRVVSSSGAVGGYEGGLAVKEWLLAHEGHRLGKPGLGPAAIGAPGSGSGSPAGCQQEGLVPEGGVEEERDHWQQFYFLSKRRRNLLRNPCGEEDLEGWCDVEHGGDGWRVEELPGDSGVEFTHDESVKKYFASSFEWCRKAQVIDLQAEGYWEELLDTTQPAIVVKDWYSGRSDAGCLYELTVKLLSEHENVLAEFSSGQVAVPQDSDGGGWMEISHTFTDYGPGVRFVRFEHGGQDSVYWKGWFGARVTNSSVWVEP
Experimental: N-glycan linked glycomolecules reversibly binds to Fbs beads. Different reagents were tested for releasing bound N-linked glycopeptides from Fbs beads. 100 μl Fbs beads with bound SGP-TMR were collected, washed with 300 μl low salt binding buffer once, and divided into three aliquots (30 μl beads each aliquot). 100 ul of 2 M ammonium bicarbonate (NH4HCO3), 50% acetonitrile, or 1% acetic acid were added to Fbs beads with bound SGP-TMR to elute SGP-TMR. The beads were centrifuged and supernatants were collected. The solvent in the supernatant was removed by vacuum evaporation using a speedvac, and SGP-TMR was reconstituted in low salt buffer. SGP-levels were measured as described in Example 9. […] 1% Acetic acid released approximately 65% of SGP-TMR. In contrast, less than 30% of bound N-glycan linked glycomolecules were released with 2 M ammonium bicarbonate.

[5] = Binding of 2-AB labeled M3N2 to SNAP-Fbs beads; conditions: low salt buffer, versus SNAP control beads
Text: When PNGase F is used to trim N-glycans away from the peptides or proteins, the terminal GlcNAc residue becomes available for modification. A common modification is fluorophore labeling using 2-AB dye. The primary amino group of the dye performs a nucleophilic attack on the carbonyl carbon of the acyclic reducing terminal residue to form a partially stable Schiff's base. […] The conserved terminal GlcNAc residue is thus referred to as the “reducing end” of a glycan species. Upon 2-AB labeling, the carbohydrate ring structure is no longer capable of forming. Fifty picomoles of 2-AB labeled M3N2 in low salt buffer were incubated with SNAP-Fbs beads or SNAP control beads (SNAP Capture beads conjugated to SNAP-tag Purified Protein, New England Biolabs, Ipswich, Mass.).

[6] = test system: Fetuin; assay: Fetuin pull-down assay (Affigel-Fetuin beads, SDS-PAGE, ImageJ); format: binding; conditions: low salt buffer, cell lysates
Text: Fetuin, which contains sialylated complex N-linked glycans, served as the complex N-linked glycomolecule in this example. Fetuin was conjugated to Affigel 15 resin (Bio-Rad, Hercules, Calif.), and then denatured by 6 M Guanidine HCL. After denaturation, the fetuin beads were washed with 50 bead volumes of low salt buffer to remove Guanidine HCL. This immobilized denatured Fetuin was used to screen Fbs mutants for improved affinity to complex N-linked glycomolecules in low salt conditions in a fetuin pull-down assay. In this assay, cell lysates containing the same amount of wild type or mutant Fbs protein were incubated with the same amount of fetuin beads at 4° C. for 1 hour. After incubation, the fetuin beads were washed three times with low salt buffer. The bound Fbs proteins were eluted by 1× gel loading buffer, and analyzed by SDS-PAGE. In the fetuin pull-down assay, the amount of Fbs mutant protein shown on the SDS-PAGE gel indicates the relative affinity of each Fbs mutant for binding to a complex N-linked glycomolecule. Fbs amino acid residue serine 155 was mutated to alanine to assess the effect on the interaction with complex N-linked glycomolecules. Mutation of Ser155 to alanine was expected to reduce the affinity of the interaction between Fbs and fetuin according to the published report of Tanaka et al. (Tanaka, et al. PNAS). […]

Question: Which Kd ([1]; read-out: Kd M3N2F) does the source give for `CC(=O)N[C@H]1[C@H](O[C@H]2[C@H](O)[C@@H](NC(C)=O)C(O)O[C@@H]2CO[C@@H]2O[C@@H](C)[C@@H](O)[C@@H](O)[C@@H]2O)O[C@H](CO)[C@@H](O[C@@H]2O[C@H](CO[C@H]3O[C@H](CO)[C@@H](O)[C@H](O)[C@@H]3O)[C@@H](O)[C@H](O[C@H]3O[C@H](CO)[C@@H](O)[C@H](O)[C@@H]3O)[C@@H]2O)[C@@H]1O` (stereo partly drawn) [M3N2F] here?
Answer: Its Kd is 128 ± 37 nM.

Question: For `CC(=O)N[C@H]1[C@H](O[C@H]2[C@H](O)[C@@H](NC(C)=O)C(O)O[C@@H]2CO)O[C@H](CO)[C@@H](O[C@@H]2O[C@H](CO[C@H]3O[C@H](CO)[C@@H](O)[C@H](O)[C@@H]3O)[C@@H](O)[C@H](O[C@H]3O[C@H](CO)[C@@H](O)[C@H](O)[C@@H]3O)[C@@H]2O)[C@@H]1O` (stereo partly drawn) [M3N2, Man(α1-3)(Man(α1-6))Man(β1-4)GlcNAc(β1-4)GlcNAc], which Kd ([1]; read-out: Kd M3N2) is on record?
Answer: Its Kd is 123 ± 36 nM.

B1: wtFbs: sugar binding domain (position 113 to 296) of human Fbs, SEQ ID NO: 2, tested as SNAP-tag fusion (SEQ ID NO: 3), free or on BG beads (protein)
chain: MGSSHHHHHHGDKDCEMKRTTLDSPLGKLELSGCEQGLHEIKLLGKGTSAADAVEVPAPAAVLGGPEPLMQATAWLNAYFHQPEAIEEFPVPALHHPVFQQESFTRQVLWKLLKVVKFGEVISYQQLAALAGNPAATAAVKTALSGNPVPILIPCHRVVSSSGAVGGYEGGLAVKEWLLAHEGHRLGKPGLGPAAIGAPGSGSGSPAGCQQEGLVPEGGVEEERDHWQQFYFLSKRRRNLLRNPCGEEDLEGWCDVEHGGDGWRVEELPGDSGVEFTHDESVKKYFASSFEWCRKAQVIDLQAEGYWEELLDTTQPAIVVKDWYSGRSDAGCLYELTVKLLSEHENVLAEFSSGQVAVPQDSDGGGWMEISHTFTDYGPGVRFVRFEHGGQDSVYWKGWFGARVTNSSVWVEP
modifications: SNAP-tag fusion; optionally on BG beads
Question: Which results are given for B1?
Answer: enrichment of non-glycosylated peptides [2]: not enriched; Fetuin/RNase B ratio ([3]; high salt volatile buffer (2 M ammonium acetate pH 7.5)): 0.92; Fetuin/RNase B ratio ([3]; low salt volatile buffer (50 mM ammonium acetate pH 7.5)): 0.29; bound N-glycan linked glycomolecules released [4]: less than 30%; binding of 2-AB labeled M3N2 [5]: disrupts the interaction

B2: S155A: human Fbs SBD variant with S155A mutation (protein)
chain: FYFLSKRRRNLLRNPCGEEDLEGWCDVEHGGDGWRVEELPGDAGVEFTHDESVKKYFASSFEWCRKAQVIDLQAEGYWEELLDTTQPAIVVKDWYSGRSDAGCLYELTVKLLSEHENVLAEFSSGQVAVPQDSDGGGWMEISHTFTDYGPGVRFVRFEHGGQDSVYWKGWFGARVTNSSVWVEP
modifications: left off: large carriers
notes: human Fbs SBD variant with S155A mutation
Question: Which “fetuin pull-down relative to wild type Fbs” value [6] does the source give for B2 here?
Answer: The value was 1.5 fold.

B3: S155G: human Fbs SBD variant with S155G mutation (protein)
chain: FYFLSKRRRNLLRNPCGEEDLEGWCDVEHGGDGWRVEELPGDGGVEFTHDESVKKYFASSFEWCRKAQVIDLQAEGYWEELLDTTQPAIVVKDWYSGRSDAGCLYELTVKLLSEHENVLAEFSSGQVAVPQDSDGGGWMEISHTFTDYGPGVRFVRFEHGGQDSVYWKGWFGARVTNSSVWVEP
modifications: left off: large carriers
notes: human Fbs SBD variant with S155G mutation
Question: For B3, which “fetuin pull-down relative to wild type Fbs” value [6] is on record?
Answer: Its value is 2.0 fold.
